The text below walks through data of patent US20250236653A1 (published 2025).

Read-outs that look alike come from different tables or passages of the source.

Assay in all cases: flow cytometry
Background: Flow cytometry measures light scatter and fluorescence of single cells or particles in a stream.

For one experiment, the target named is T1, cynomolgus monkey OX40 (cynomolgus monkey).
T1 chain: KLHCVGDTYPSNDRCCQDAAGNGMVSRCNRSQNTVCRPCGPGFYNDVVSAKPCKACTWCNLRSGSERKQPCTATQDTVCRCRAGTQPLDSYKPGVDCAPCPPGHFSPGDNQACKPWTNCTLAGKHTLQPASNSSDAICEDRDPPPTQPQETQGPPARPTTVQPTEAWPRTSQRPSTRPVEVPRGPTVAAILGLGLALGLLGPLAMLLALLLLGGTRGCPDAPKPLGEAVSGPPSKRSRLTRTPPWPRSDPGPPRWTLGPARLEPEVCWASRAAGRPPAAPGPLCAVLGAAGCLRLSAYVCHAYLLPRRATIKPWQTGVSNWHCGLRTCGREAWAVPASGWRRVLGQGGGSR

In experiment [1] the target is T2, human OX40 (human, UniProt P43489 29-277).
T2 chain: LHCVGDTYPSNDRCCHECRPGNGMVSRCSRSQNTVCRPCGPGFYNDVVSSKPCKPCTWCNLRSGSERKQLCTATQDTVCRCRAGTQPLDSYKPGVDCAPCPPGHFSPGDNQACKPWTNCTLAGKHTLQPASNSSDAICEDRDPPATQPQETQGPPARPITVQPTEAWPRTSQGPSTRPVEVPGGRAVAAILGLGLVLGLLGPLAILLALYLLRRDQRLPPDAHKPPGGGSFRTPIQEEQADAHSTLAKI

Experiment [2] deals with T2, human OX40.
For experiment [3], the target named is T2, human OX40.

B1: mono-mut23-20E5 (Fc fusion)
chain: IWELKKDVYVVELDWYPDAPGEMVVLTCDTPEEDGITWTLDQSSEVLGSGKTLTIQVKEFGDAGQYTCHKGGEVLSHSLLLLHKKEDGIWSTDILKDQKEPKNKTFLRCEAKNYSGRFTCWWLTTISTDLTFSVKSSRGSSDPQGVTCGAATLSAERVRGDNKEYEYSVECQEDSACPAAEESLPIEVMVDAVHKLKYENYTSSFFIRDIIKPDPPKNLQLKPLKNSRQVEVSWEYPDTWSTPHSYFSLTFSVQVQGKSKREKKDRVFTDKTSATVICRKNASISVRAQDRYYSSSWSEWASVPCSGGGGSGGGGSGGGGSGGGGSGGGGSRNLPVATPDPGMFPCLHHSQNLLRAVSNMLQKARQTLEFSPCTSEEIDHEDITKDKTSTVEACLPLELTKNESCLNSRETSFITNGSCLASRKTSFMMALCLSSIYEDLKMYQVEFKTMNAKLLMDPKRQIFLDQNMLAVIDELMQALNFNSETVPQKSSLEEPDFYKTAIKLCILLHAFRIRAVTIDRVMSYLNASGGGGSGGGGSEPKSSDKTHTCPPCPAPEFEGGPSVFLFPPKPKDTLMISRTPEVTCVVVDVSHEDPEVKFNWYVDGVEVHNAKTKPREEQYNSTYRVVSVLTVLHQDWLNGKEYKCKVSNKALPASIEKTISKAKGQPREPQVCTLPPSRDELTKNQVSLSCAVKGFYPSDIAVEWESNGQPENNYKTTPPVLDSDGSFFLVSKLTVDKSRWQQGNVFSCSVMHEALHNHYTQKSLSLSPG
heavy: QVQLVQSGAEVKKPGASVKVSCKASGYTFTSYVMHWVRQAPGQRLEWIGYINPYNDGTKYNEKFKGRATLTSDKSASTAYMELSSLRSEDTAVYYCANYYGSSLSMDYWGQGTLVTVSSASTKGPSVFPLAPSSKSTSGGTAALGCLVKDYFPEPVTVSWNSGALTSGVHTFPAVLQSSGLYSLSSVVTVPSSSLGTQTYICNVNHKPSNTKVDKKVEPKSCDKTHTCPPCPAPEFEGGPSVFLFPPKPKDTLMISRTPEVTCVVVDVSHEDPEVKFNWYVDGVEVHNAKTKPREEQYNSTYRVVSVLTVLHQDWLNGKEYKCKVSNKALPASIEKTISKAKGQPREPQVYTLPPCRDELTKNQVSLWCLVKGFYPSDIAVEWESNGQPENNYKTTPPVLDSDGSFFLYSKLTVDKSRWQQGNVFSCSVMHEALHNHYTQKSLSLSPG
light: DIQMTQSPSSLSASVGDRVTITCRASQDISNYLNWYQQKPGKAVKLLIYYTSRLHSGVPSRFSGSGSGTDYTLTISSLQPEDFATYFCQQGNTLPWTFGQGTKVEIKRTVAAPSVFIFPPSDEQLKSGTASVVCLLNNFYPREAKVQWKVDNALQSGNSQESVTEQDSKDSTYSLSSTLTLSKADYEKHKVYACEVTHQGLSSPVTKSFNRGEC
Regarding B1, the EC50 was determined as 111 nM with cynomolgus monkey OX40, 92.6 nM in the experiment with human OX40 [1] and 59.2 nM with human OX40 [2].

B2: mono-mut23-12H3_V3 (Fc fusion)
chain: IWELKKDVYVVELDWYPDAPGEMVVLTCDTPEEDGITWTLDQSSEVLGSGKTLTIQVKEFGDAGQYTCHKGGEVLSHSLLLLHKKEDGIWSTDILKDQKEPKNKTFLRCEAKNYSGRFTCWWLTTISTDLTFSVKSSRGSSDPQGVTCGAATLSAERVRGDNKEYEYSVECQEDSACPAAEESLPIEVMVDAVHKLKYENYTSSFFIRDIIKPDPPKNLQLKPLKNSRQVEVSWEYPDTWSTPHSYFSLTFSVQVQGKSKREKKDRVFTDKTSATVICRKNASISVRAQDRYYSSSWSEWASVPCSGGGGSGGGGSGGGGSGGGGSGGGGSRNLPVATPDPGMFPCLHHSQNLLRAVSNMLQKARQTLEFSPCTSEEIDHEDITKDKTSTVEACLPLELTKNESCLNSRETSFITNGSCLASRKTSFMMALCLSSIYEDLKMYQVEFKTMNAKLLMDPKRQIFLDQNMLAVIDELMQALNFNSETVPQKSSLEEPDFYKTAIKLCILLHAFRIRAVTIDRVMSYLNASGGGGSGGGGSEPKSSDKTHTCPPCPAPEFEGGPSVFLFPPKPKDTLMISRTPEVTCVVVDVSHEDPEVKFNWYVDGVEVHNAKTKPREEQYNSTYRVVSVLTVLHQDWLNGKEYKCKVSNKALPASIEKTISKAKGQPREPQVCTLPPSRDELTKNQVSLSCAVKGFYPSDIAVEWESNGQPENNYKTTPPVLDSDGSFFLVSKLTVDKSRWQQGNVFSCSVMHEALHNHYTQKSLSLSPG
heavy: QVQLVQSGAEVKKPGSSVKVSCKASGYTFKDYTMHWVRQAPGQGLEWIGGIYPNQGGSTYNQNFKDRVTLTADKSTSTAYMELSSLRSEDTAVYYCARMGYHGPHLDFDVWGQGTTVTVSSASTKGPSVFPLAPSSKSTSGGTAALGCLVKDYFPEPVTVSWNSGALTSGVHTFPAVLQSSGLYSLSSVVTVPSSSLGTQTYICNVNHKPSNTKVDKKVEPKSCDKTHTCPPCPAPEFEGGPSVFLFPPKPKDTLMISRTPEVTCVVVDVSHEDPEVKFNWYVDGVEVHNAKTKPREEQYNSTYRVVSVLTVLHQDWLNGKEYKCKVSNKALPASIEKTISKAKGQPREPQVYTLPPCRDELTKNQVSLWCLVKGFYPSDIAVEWESNGQPENNYKTTPPVLDSDGSFFLYSKLTVDKSRWQQGNVFSCSVMHEALHNHYTQKSLSLSPG
light: DIQMTQSPSSLSASVGDRVTITCKASQDVGAAVAWYQQKPGKAPKLLIYWASTRHTGVPSRFSGSGSGTDFTLTISSLQPEDFATYYCQQYINYPLTFGGGTKVEIKRTVAAPSVFIFPPSDEQLKSGTASVVCLLNNFYPREAKVQWKVDNALQSGNSQESVTEQDSKDSTYSLSSTLTLSKADYEKHKVYACEVTHQGLSSPVTKSFNRGEC
In turn, B2 came in with an EC50 with human OX40 [3] of 839 nM.

B3: mono-mut23-12H3_V8 (Fc fusion)
chain: IWELKKDVYVVELDWYPDAPGEMVVLTCDTPEEDGITWTLDQSSEVLGSGKTLTIQVKEFGDAGQYTCHKGGEVLSHSLLLLHKKEDGIWSTDILKDQKEPKNKTFLRCEAKNYSGRFTCWWLTTISTDLTFSVKSSRGSSDPQGVTCGAATLSAERVRGDNKEYEYSVECQEDSACPAAEESLPIEVMVDAVHKLKYENYTSSFFIRDIIKPDPPKNLQLKPLKNSRQVEVSWEYPDTWSTPHSYFSLTFSVQVQGKSKREKKDRVFTDKTSATVICRKNASISVRAQDRYYSSSWSEWASVPCSGGGGSGGGGSGGGGSGGGGSGGGGSRNLPVATPDPGMFPCLHHSQNLLRAVSNMLQKARQTLEFSPCTSEEIDHEDITKDKTSTVEACLPLELTKNESCLNSRETSFITNGSCLASRKTSFMMALCLSSIYEDLKMYQVEFKTMNAKLLMDPKRQIFLDQNMLAVIDELMQALNFNSETVPQKSSLEEPDFYKTAIKLCILLHAFRIRAVTIDRVMSYLNASGGGGSGGGGSEPKSSDKTHTCPPCPAPEFEGGPSVFLFPPKPKDTLMISRTPEVTCVVVDVSHEDPEVKFNWYVDGVEVHNAKTKPREEQYNSTYRVVSVLTVLHQDWLNGKEYKCKVSNKALPASIEKTISKAKGQPREPQVCTLPPSRDELTKNQVSLSCAVKGFYPSDIAVEWESNGQPENNYKTTPPVLDSDGSFFLVSKLTVDKSRWQQGNVFSCSVMHEALHNHYTQKSLSLSPG
heavy: QVQLVQSGAEVKKPGSSVKVSCKASGYTFKDYTMHWVRQAPGQGLEWIGGIYPNQGGSTYNQNFKDRVTLTADKSTSTAYMELSSLRSEDTAVYYCARIGYHGPHLDFDVWGQGTTVTVSSASTKGPSVFPLAPSSKSTSGGTAALGCLVKDYFPEPVTVSWNSGALTSGVHTFPAVLQSSGLYSLSSVVTVPSSSLGTQTYICNVNHKPSNTKVDKKVEPKSCDKTHTCPPCPAPEFEGGPSVFLFPPKPKDTLMISRTPEVTCVVVDVSHEDPEVKFNWYVDGVEVHNAKTKPREEQYNSTYRVVSVLTVLHQDWLNGKEYKCKVSNKALPASIEKTISKAKGQPREPQVYTLPPCRDELTKNQVSLWCLVKGFYPSDIAVEWESNGQPENNYKTTPPVLDSDGSFFLYSKLTVDKSRWQQGNVFSCSVMHEALHNHYTQKSLSLSPG
light: DIQMTQSPSSLSASVGDRVTITCKASQDVGAAVAWYQQKPGKAPKLLIYWASTRHTGVPSRFSGSGSGTDFTLTISSLQPEDFATYYCQQYINYPLTFGGGTKVEIKRTVAAPSVFIFPPSDEQLKSGTASVVCLLNNFYPREAKVQWKVDNALQSGNSQESVTEQDSKDSTYSLSSTLTLSKADYEKHKVYACEVTHQGLSSPVTKSFNRGEC
In turn, B3 came in with an EC50 with human OX40 [3] of 1910 nM.

B4: mono-mut23-12H3 (Fc fusion)
chain: IWELKKDVYVVELDWYPDAPGEMVVLTCDTPEEDGITWTLDQSSEVLGSGKTLTIQVKEFGDAGQYTCHKGGEVLSHSLLLLHKKEDGIWSTDILKDQKEPKNKTFLRCEAKNYSGRFTCWWLTTISTDLTFSVKSSRGSSDPQGVTCGAATLSAERVRGDNKEYEYSVECQEDSACPAAEESLPIEVMVDAVHKLKYENYTSSFFIRDIIKPDPPKNLQLKPLKNSRQVEVSWEYPDTWSTPHSYFSLTFSVQVQGKSKREKKDRVFTDKTSATVICRKNASISVRAQDRYYSSSWSEWASVPCSGGGGSGGGGSGGGGSGGGGSGGGGSRNLPVATPDPGMFPCLHHSQNLLRAVSNMLQKARQTLEFSPCTSEEIDHEDITKDKTSTVEACLPLELTKNESCLNSRETSFITNGSCLASRKTSFMMALCLSSIYEDLKMYQVEFKTMNAKLLMDPKRQIFLDQNMLAVIDELMQALNFNSETVPQKSSLEEPDFYKTAIKLCILLHAFRIRAVTIDRVMSYLNASGGGGSGGGGSEPKSSDKTHTCPPCPAPEFEGGPSVFLFPPKPKDTLMISRTPEVTCVVVDVSHEDPEVKFNWYVDGVEVHNAKTKPREEQYNSTYRVVSVLTVLHQDWLNGKEYKCKVSNKALPASIEKTISKAKGQPREPQVCTLPPSRDELTKNQVSLSCAVKGFYPSDIAVEWESNGQPENNYKTTPPVLDSDGSFFLVSKLTVDKSRWQQGNVFSCSVMHEALHNHYTQKSLSLSPG
heavy: QVQLVQSGAEVKKPGSSVKVSCKASGYTFKDYTMHWVRQAPGQGLEWIGGIYPNNGGSTYNQNFKDRVTLTADKSTSTAYMELSSLRSEDTAVYYCARMGYHGPHLDFDVWGQGTTVTVSSASTKGPSVFPLAPSSKSTSGGTAALGCLVKDYFPEPVTVSWNSGALTSGVHTFPAVLQSSGLYSLSSVVTVPSSSLGTQTYICNVNHKPSNTKVDKKVEPKSCDKTHTCPPCPAPEFEGGPSVFLFPPKPKDTLMISRTPEVTCVVVDVSHEDPEVKFNWYVDGVEVHNAKTKPREEQYNSTYRVVSVLTVLHQDWLNGKEYKCKVSNKALPASIEKTISKAKGQPREPQVYTLPPCRDELTKNQVSLWCLVKGFYPSDIAVEWESNGQPENNYKTTPPVLDSDGSFFLYSKLTVDKSRWQQGNVFSCSVMHEALHNHYTQKSLSLSPG
light: DIQMTQSPSSLSASVGDRVTITCKASQDVGAAVAWYQQKPGKAPKLLIYWASTRHTGVPSRFSGSGSGTDFTLTISSLQPEDFATYYCQQYINYPLTFGGGTKVEIKRTVAAPSVFIFPPSDEQLKSGTASVVCLLNNFYPREAKVQWKVDNALQSGNSQESVTEQDSKDSTYSLSSTLTLSKADYEKHKVYACEVTHQGLSSPVTKSFNRGEC
For the molecule B4, the EC50 with cynomolgus monkey OX40 stood at 19.2 nM; in the experiment with human OX40 [2], 15.6 nM.

In general, EC50 refers to the concentration at which the effect is half-maximal.
